Test results taken from IntAct's records for PubMed 11801737.

B1: Protein phosphatase 1 regulatory subunit SDS22 (Saccharomyces cerevisiae), P36047 (parent)
chain: MDKNSVNKDSEEKDERHKIEVVDDTNPDFITADSELTQDLPDDVEVIDLVHLKIKSLEDLNLYRFKNLKQLCLRQNLIESISEVEVLPHDKIVDLDFYDNKIKHISSNVNKLTKLTSLDLSFNKIKHIKNLENLTDLENLYFVQNSISKIENLSTLKSLKNLELGGNKVHSIEPDSFEGLSNLEEIWLGKNSIPRLINLHPLKNLKILSIQSNKLKKIENLEELTNLEELYLSHNFITKIEGLEKNLKLTTLDVTSNKITSLENLNHLSNLTDIWASFNKIDQSFESLGENLSALSRLETIYLEGNPIQLENKTSYRRKLTMNLPPSLQKIDATYIRG

Variants of: B1
Details: with pp12_yeast GLC7, P32598
Chain of pp12_yeast GLC7, P32598 (P32598 whole entry): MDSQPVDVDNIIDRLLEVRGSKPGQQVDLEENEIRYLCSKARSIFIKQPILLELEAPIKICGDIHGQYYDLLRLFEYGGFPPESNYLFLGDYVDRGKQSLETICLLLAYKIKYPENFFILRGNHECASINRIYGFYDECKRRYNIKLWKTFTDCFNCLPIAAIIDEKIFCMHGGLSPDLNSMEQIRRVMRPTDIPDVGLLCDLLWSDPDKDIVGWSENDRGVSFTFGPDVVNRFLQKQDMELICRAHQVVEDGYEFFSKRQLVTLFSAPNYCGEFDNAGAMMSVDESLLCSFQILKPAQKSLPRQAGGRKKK

| Variant | effect of a mutation on the interaction |
| --- | --- |
| I54T;I193T | decreasing interaction strength |
